Experimental data from the DeepSol protein solubility set.

Assay: soluble on expression in E. coli; label from the status in PepcDB or PDB records

Row | Sequence | soluble on expression in E. coli
1 | MSSERQLAGRIVVPGEPLPEEVEASPPYVIDYKGVKRATVVGLLREKGDGGGRAFVKLKEIYVPQAGDVVIGLIQSVGIMNWFVDINSPYVAVLSVQDFLGRPFNPAVDDMQSLLKVGDYIKAKVVAFDKTRSPLLTVQGEGLGRIVRGKIVEISPAKVPRVIGRKMSMLKTLEEKTECKIFVARNGRIHLECPNEDLEAIAVMAIKIIDEEAYTSGLTKRIIKFIEEERRIREV | soluble
2 | MAHHHHHHMGGQSSVTTTPEQIPVNGKSLDWGPPPDDIPEEERDNEELVLQTWAFCKAKPSPAQNYRSDVEERKRRQSMLWRKRASFIELDCGEDSFFVSNTYKVIGVADGVGGWRDEGVDASHFANSLMENAKHFSETHRKELNPEVILQSAFDKVLHDKVVKAGSSTACVVALQKDSSGEHYLDVANVGDSGVLVVRNRQVQHRVHEKVHGFNAPFQLAVLPPHLQGRAFSDRVSDATREKIPVQRGDVVITGTDGLFDNRFNISLAADAGWIGHVQGSALERVPLVGLLLGPIFANDKVAYVDPQRVAQRIVQDAYKTSLDESAHTPWASMLRKFGVEDAKGGKVDDITLVLSRVTTREELNATSTW | not soluble
3 | MGSSHHHHHHSSGLVPRGSHMSSEFIEAGAADRVRILSEALPYLQQFAGRTVVVKYGGAAMKQEELKEAVMRDIVFLACVGMRPVVVHGGGPEINAWLGRVGIEPQFHNGLRVTDADTMEVVEMVLVGRVNKDIVSRINTTGGRAVGFCGTDGRLVLARPHDQEGIGFVGEVNSVNSEVIEPLLERGYIPVISSVAADENGQSFNINADTVAGEIAAALNAEKLILLTDTRGILEDPKRPESLIPRLNIPQSRELIAQGIVGGGMIPKVDCCIRSLAQGVRAAHIIDGRIPHALLLEIFTDAGIGTMIVGSGYHEAHQPWQ | soluble
4 | MFSVFEWILIFFGILNWFKFTQPSTPEPASRFFTRVCQQLRETVLIEIDSSGRVQPFVSIVEEGSKPYFSPHVGCAECMQWWDVYGEQPHRVEETEDQDTDEGVEEESEIEDSDFDDQITFVKPTTPAPLSPETENFIEDKMKFHFQATDIINEYLGKGTDMGIVSNLIRISQTYGVQLKQVSSGKSSMKEIEGILKSLQKEFEQEIEGLNGEISEAEENNESDIDESFEFVENLELDSDFE | not soluble
5 | SVAADSAATESLGRIGSLSQVSGVLGCQWGDEGKGKLVDILAQHFDIVARCQGGANAGHTIYNSEGKKFALHLVPSGILNEDTTCVIGNGVVVHLPGLFKEIDGLESNGVSCKGRILVSDRAHLLFDFHQEVDGLRESELAKSFIGTTKRGIGPAYSSKVIRNGIRVGDLRHMDTLPQKLDLLLSDAAARFQGFKYTPEMLREEVEAYKRYADRLEPYITDTVHFINDSISQKKKVLVEGGQATMLDIDFGTYPFVTSSSPSAGGICTGLGIAPSVVGDLIGVVKAYTTRVGSGPFPTENLGTGGDLLRLAGQEFGTTTGRPRRCGWLDIVALKFSCQINGFASLNLTKLDVLSDLNEIQLGVAYKRSDGTPVKSFPGDLRLLEELHVEYEVLPGWKSDISSVRNYSDLPKAAQQYVERIEELVGVPIHYIGIGPGRDALIYK | soluble
6 | MIQKQHESKLEVGQTFPVTIKRLGINGEGVGYFKRQVVFIPGALPGEEVVAETTKIQRGFAEAKVKKVRKASPHRVKAPCPVYEECGGCQLQHLDYKEQLNQKRDIVVQAFEKYMKNSMEEKIRPTLGMENPWHYRNKSQLQVGRKDEKVITGLYKQNSHQLIDIAHCMIQHKATNEATKVVRRILEKLNVSIYNEKKQKGLVRTIVTRTAVQTGEVQVTLITTKEELPNKEQFIAEVQKQMPAVKSIMQNVNWRKTSVIFGDKTFKLAGKEVIQETLGDLSFELSARAFFQLNPEQTVVLYNEAKKAAALTGNEKIVDAYCGVGTIGLWLANDAAEVRGMDVIPEAIADARKNAKRHGFTNTKYEAGKAEQWLPKWVKEGWRPDVIVVDPPRTGCDDKLLETILKVKPKQVVYVSCNPSSLARDVQALMKSYEVEYVQPVDMFPHTAHVENVVKLTLK | not soluble
7 | MGSDKIHHHHHHMARLLSELQPSEFDITVVAIADTPPDVVSMLPDHVEVKHLKMTRRTALLQLGEISKIVKSTDILVCSLFHATAIGVPLGLLLQVPKLLVWQHSTSYSNQIRSAYYRLAYRAADRVLADSDAVMEMLVDSVGVPDQKISTLPIAGIDVKEYQPSKTHPSHENITVSTVGRLANVKGYDDLIRCARDIGDDLQFQIAGEGEERERLESKTPDNVNFQGMVPNEQIPQFLNNSDIYFQPSKYEGLCMAVIEAMACGLPVVASDVGGITESVVPGETGFLCRPRDIDCFSERLQQLSENPALRKQMGTAGRKRVISEYSQKALARQFRKAIDQTETV | not soluble
8 | SLVHKKIVVPSATDMATRFTQDSFVFDCLSMYYVIDDPWAENCLAAGVNATNVTFGTEQPWDIVLRDFDSGLEKIERSPYLALATNRQEIDAANKQGKLAVIIGTQGSAMVDLEFHRLRTMHRLGMRYFGLAYTGPTMFADGCGESRNAGLSFAGIELIDACNDLGLILDLSHVGHRSREEAVARSRFPVYTHSNSYALNPNDRNTTDETARAIRAKGGIMGICGLPKTVHPENATLNELLDHADHWVKTIDAAHVGFGLDFVEAYKSDRSTMPAASRLWRTRRPDIFGTVEEFHLQDYPLGIASIKQLPNLTQGLFDRGYAEKEVAGIIGGNWLRHFTEVYG | soluble
9 | MFKSLSQLFRPRVEALGLEIGASALKLVEVSGNPPALKALASRPTPPGLLMEGMVAEPAALAQEIKELLLEARTRKRYVVTALSNLAVILRPIQVPKMPLKEMEEAVRWEAERYIPFPIDEVVLDFAPLTPLSEVQEGEQVQVMVAAARQEAVAGVLEALRGAGLVPVVLDVKPFAGLYPLEARLAEEPDRVFLALDIGAESTSLVLLRGDKPLAVRVLTLSGKDFTEAIARSFNLDLLAAEEVKRTYGMATLPTEDEELLLDFDAERERYSPGRIYDAIRPVLVELTQELRRSLEFFRIQLEEASPEVGYLLGGGSKLRGLASLLTDTLGVNFEPVNPWEAVAVDPKRFESEQLQEIGPEFAVALGLALRGVEPLD | soluble
10 | APMKLYGAVMSWNLTRCATALEEAGSDYEIVPINFATAEHKSPEHLVRNPFGQVPALQDGDLYLFESRAICKYAARKNKPELLREGNLEEAAMVDVWIEVEANQYTAALNPILFQVLISPMLGGTTDQKVVDENLEKLKKVLEVYEARLTKCKYLAGDFLSLADLNHVSVTLCLFATPYASVLDAYPHVKAWWSGLMERPSVQKVAALMKPSA | soluble
11 | MRVSGSASSQDIISRINSKNINNNDSNEVKRIKDALCIESKERILYPQNLSRDNLKQMARYVNNTYVHYSGNCVLLSACLHYNIHHRQDILSSKNTASPTVGLDSAIVDKIIFGHELNQSYCLNSIDEVEKEILNRYDIKRESSFIISAENYIAPIIGECRHDFNAVVICEYDKKPYVQFIDSWKTSNILPSLQEIKKHFSSSGEFYVRAYDEKHD | not soluble
12 | MGSDKIHHHHHHLPQLLSAMRGPGTRSPDMPYARKTLAQIRSDAMADIAAALQGSDPLLRFAALKIIGVVLAGMTNEEYGYLDWIAKQTNPFTADDEYLEAWGALKKVYRKDASAASLSATFTGVAGKLLDDGTPVVRSDGATYTTSGTQTVVGTSVTVTIVADVAGAAGNADPGTVVALDIAVDGIQSTGAVIGTVSSGADIEDQEDYRARVLAKYQQPPQGGAAPDYVEWATDVAGVTRAWCAPNGFGAGTVVVYVMLDDAQAAHGGFPQGTDGVSQHDQGPGGLPRGTVATGDQLVVADAIVTLQPGTALVWICSPVENVLSFELTGSAGWSTAIRNAVKAQISDVFFRNGDPRGGTIDRSDINSAIAAVPGTAGFVITSITGVISGTPTTYPANITGSFGSLPVLGEVTFG | not soluble
13 | RLSQRLIEPVSALKVQLDQHQGDTSQKFIVPEGSAKEFQTLASQLNEYRSQINQVIKREQAFARYASHELRTPLTVMKGSSSLLARSPSTPFQERQIGRIQDATQQMSTMVDALLGLVRYERNTDDSPVRTISEQELHNIVALSQAQADEKSLEFNVQILGHPQTKATTAVLNITLSNLIRNGIAATSAGTIHITMTDTTLSVKDEGEGFSSVPDAEGHGLGLMIVDDLCRRYGWQFTIDTHSEGGCEAVIDLSSEHHEACSEQLPQH | not soluble
14 | GPGSMALATTGYPALASSHSFANASTSVMTASAMAVVRRAATTTGASAATTTPQVVHYSKLGMDGFTDIKFNTAADELLELVETKVDALDSAAVEDVSCNGGVLTLETTDRGTFILNKQAPNVQLWLSSPISGPHHYDMITVTQGGHEKVSWKSDHDGHDLVKKLEEELTEVLGTDFKV | soluble
15 | MPWRTALKVALAAGEAVAKALTRAVRDEIKQTQQAAARHAASTGQSASETRENANSNAKLGISLEESLQILNVKTPLNREEVEKHYEHLFNINDKSKGGTLYLQSKVFRAKERIDEEFGRIELKEEKKKEENAKTE | not soluble
16 | MYSGVQIRTGSNPKIRRNKIWGGQNGGILVYNSGLGCIEDNEIFDNAMAGVWIKTDSNPTLRRNKIHDGRDGGICIFNGGRGLLEENDIFRNAQAGVLISTNSHPILRKNRIFDGFAAGIEITNHATATLEGNQIFNNRFGGLFLASGVNVTMKDNKIMNNQDAIEKAVSRGQCLYKISSYTSYPMHDFYRCHTCNTTDRNAICVNCIKKCHQGHDVEFIRHDRFFCDCGAGTLSNPCTLAGEPTHDTDTLYDSAPPIESNTLQHN | soluble
17 | MGSDKIHHHHHHMDHQIEDFLEHWLPLADDAWVLAVITQIQGSAYRKPGAMMLFHEFGQGVGMLSGGCLEADLRRHAQKAMQTKQVTCVTYDASDESDASYRLGCGGIVDIMLIPLLKENHDLGLIELVQAFRHGRSGFYQLPLVKAGTDARQYQAAFYPEALTPFPASDFVRTGVFTQEAGESLIIPLRPRFHLGIFGGGIDAKPIAAMADTLGWQVTVFDGRTAYARAADFPHAHIVKLTAGELTANHIAQLDCAVVMNHNLGLDAVALKVIQAHPLAYVALLGPAHRRDKVLGMAGLSTESFSGVFSAPAGLALGGELPSAVALSILAQCHGVLHGATLKHLDEIMR | not soluble
18 | MSLRSYLGSISTSKTEVNSMKMHVLKLLIPTMALLLSACASLPPELGNPDDKSVVTQYSAWLERDPATQSPVRMGGVVANISNQKDRTRVELVNLPIDSAGRPNIHQEPQGRFVAYVPGFLDPITYGEGRLLTLYGTTAPSEQGKVGDYEHTYPVMNAQGYHLWRVEERVEVDDIGPYMFPCRGFYCWPRTMPERDGKIIQEVKEGGSHHHHHH | soluble
19 | MSLKYIIGMDVGTTATKGVLYDINGKAVASVSKGYPLIQTKVGQAEEDPKLIFDAVQEIIFDLTQKIDGKIAAISWSSQMHSLIGLGSDDELLTNSITWADNCAKSIVQDAKNRGFAQQIYRKTGMPMHPMAPIYKLLWLKNKKTEVFSQAQKWIGIKEYIIFRLTGKLVTDTTMAAGTGILNLKTLTWDQELLDILKIKKEQLPKIAQPTKVIFPIKTEYVKKLGIDSDTKIILGASDGYLSTIGVNAIDSDHCALNVGTSGAIRTIVDQPKIDPSASYFCYPADKTHYLLGGPVNNGGIVFNWARQTLFDADETPQDFLDVAQTAPAGSRNLIFLPYLGGERAPIWDANARGSFVGLTRMHQKPEMARAVIEGIIFNLYDAASNLIKNTKKPVAINATGGFLKSDFVRQLCANIFNVPIVTMKEQQSGTLAAMFLARQALGLNQDLSEIGQFAQADKVYFPNPKEAATYQKLFPLYCEIRNALAASYGKFSNINEGHHHHHH | soluble
